Data on one molecule can be found in patent US20090082268A1 (GEYMONAT S P A, published 2009).

The target of the assay is T1, human VEGFR-1/Fc (R&D Systems) (human, UniProt P17948 27-756, limits assumed).
T1 construct: Bought reagent, coated on the ELISA plate; also called receptor Flt-1; not shown: Fc part of the bought fusion
The experiment in a line: ELISA: VEGFR-1/Fc coated, PlGF-1 diluted two-fold from 20 ng/ml, detected with biotinylated anti-human PlGF antibodies. The method, then: To test receptor binding, an ELISA assay was performed according to the following protocol: [0141] 1. Well of 96-well microtiter plate were coated with 200 μl of 1 μg/ml human VEGFR-1/Fc (R&D Systems) and incubated overnight at 4° C. [0142] 2. Two-fold dilution series starting at 20 ng/ml of various preparations of recombinant human PlGF-1 were prepared and added in a volume of 100 μl per well. The plate was incubated for 2 hours at room temperature. [0143] 3. Bound PlGF-1 was captured with biotinylated anti-human PlGF antibodies (R&D Systems) added in a volume of 100 μl per well for 1 hour at room temperature. [0144] 4. A 1:200 dilution of horseradish peroxidase-conjugated streptavidin (R&D Systems) was added and incubated for 20 min. at room temperature. [0145] 5. Substrate solution (TMB from Pierce) was added and after 15 min. the reaction was quenched with 2 M sulfuric acid. [0146] 6. The absorbance was measured at 450 nm.

T1 sequence (P17948 27-756 limits assumed): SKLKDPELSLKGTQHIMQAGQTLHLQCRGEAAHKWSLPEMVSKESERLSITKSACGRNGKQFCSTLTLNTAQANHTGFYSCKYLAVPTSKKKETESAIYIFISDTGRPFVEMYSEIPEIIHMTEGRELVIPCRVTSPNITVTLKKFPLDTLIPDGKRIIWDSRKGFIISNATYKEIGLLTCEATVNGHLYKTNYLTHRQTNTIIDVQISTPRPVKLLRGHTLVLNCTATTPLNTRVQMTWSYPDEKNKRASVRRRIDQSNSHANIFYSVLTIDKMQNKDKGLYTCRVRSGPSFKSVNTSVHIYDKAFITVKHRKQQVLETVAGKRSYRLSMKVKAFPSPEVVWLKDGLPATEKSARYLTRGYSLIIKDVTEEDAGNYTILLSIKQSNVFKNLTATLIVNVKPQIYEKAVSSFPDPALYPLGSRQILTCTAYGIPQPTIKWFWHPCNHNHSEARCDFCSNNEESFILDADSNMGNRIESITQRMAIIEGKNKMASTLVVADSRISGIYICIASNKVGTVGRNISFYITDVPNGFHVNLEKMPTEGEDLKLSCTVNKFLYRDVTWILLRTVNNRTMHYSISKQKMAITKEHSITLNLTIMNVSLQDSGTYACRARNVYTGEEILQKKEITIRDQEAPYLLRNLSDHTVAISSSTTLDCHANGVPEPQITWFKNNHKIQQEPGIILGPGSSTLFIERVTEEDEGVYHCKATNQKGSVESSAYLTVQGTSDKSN

B1: PlGF-1 mutein from Geymonat (recombinant human PLGF-1CG) (ligand)
chain: MLPAVPPQQWALSAGNGSSEVEVVPFQEVWGRSYCRALERLVDVVSEYPSEVEHMFSPSCVSLLRCTGCCGDENLHCVPVETANVTMQLLKIRSGDRPSYVELTFSQHVRCECRPLREKMKPERGGDAVPRR
notes: Described as 'a PlGF-1 mutein embodiment of the present invention'; also called Geymonat Mutein; Mutein Geymonat
Consider B1, for which the binding result is given as “binds”.
